Columns and labels:
Test in all cases: ELISA
[1] = target: HLA-DR (DRA1*01:01 / DRB1*14:54), soluble knob-into-hole Fc heterodimer (human)
[2] = target: HLA-DR (DRA1*01:01 / DRB1*12:01), soluble knob-into-hole Fc heterodimer (human)
[3] = target: HLA-DR (DRA1*01:01 / DRB1*03:01), soluble knob-into-hole Fc heterodimer (human)
[4] = target: HLA-DR (DRA1*01:01 / DRB1*04:04), soluble knob-into-hole Fc heterodimer (human)
[5] = target: HLA-DR (DRA1*01:01 / DRB1*13:01), soluble knob-into-hole Fc heterodimer (human)
[6] = target: HLA-DR (DRA1*01:01 / DRB1*14:01), soluble knob-into-hole Fc heterodimer (human)
[7] = target: HLA-DR (DRA1*01:01 / DRB1*04:03), soluble knob-into-hole Fc heterodimer (human)
[8] = target: HLA-DR (DRA1*01:01 / DRB1*07:01), soluble knob-into-hole Fc heterodimer (human)
[9] = target: HLA-DR (DRA1*01:01 / DRB1*15:01), soluble knob-into-hole Fc heterodimer (human)
[10] = target: HLA-DR (DRA1*01:01 / DRB1*04:07), soluble knob-into-hole Fc heterodimer (human)
[11] = target: HLA-DR (DRA1*01:01 / DRB1*13:02), soluble knob-into-hole Fc heterodimer (human)
[12] = target: HLA-DR (DRA1*01:01 / DRB1*16:02), soluble knob-into-hole Fc heterodimer (human)
[13] = target: HLA-DR (DRA1*01:01 / DRB1*15:02), soluble knob-into-hole Fc heterodimer (human)
[14] = target: HLA-DR (DRA1*01:01 / DRB1*09:01), soluble knob-into-hole Fc heterodimer (human)
[15] = target: HLA-DR (DRA1*01:01 / DRB1*04:06), soluble knob-into-hole Fc heterodimer (human)
[16] = target: HLA-DR (DRA1*01:01 / DRB1*11:01), soluble knob-into-hole Fc heterodimer (human)
[17] = target: HLA-DR (DRA1*01:01 / DRB1*01:02), soluble knob-into-hole Fc heterodimer (human)
[18] = target: HLA-DR (DRA1*01:01 / DRB1*15:03), soluble knob-into-hole Fc heterodimer (human)
[19] = target: HLA-DR (DRA1*01:01 / DRB1*01:01), soluble knob-into-hole Fc heterodimer (human)
[20] = target: HLA-DR (DRA1*01:01 / DRB1*10:01), soluble knob-into-hole Fc heterodimer (human)
[21] = target: HLA-DR (DRA1*01:01 / DRB1*04:05), soluble knob-into-hole Fc heterodimer (human)
[22] = target: HLA-DR (DRA1*01:01 / DRB1*04:01), soluble knob-into-hole Fc heterodimer (human)
[23] = target: HLA-DR (DRA1*01:01 / DRB1*11:04), soluble knob-into-hole Fc heterodimer (human)
[24] = target: HLA-DR (DRA1*01:01 / DRB1*12:02), soluble knob-into-hole Fc heterodimer (human)

Ki [1]: 9.1 nM
Ki [2]: 37.8 nM
Ki [3]: 23.9 nM
Ki [4]: 7.75 nM
Ki [5]: 350 nM
Ki [6]: 67 nM
Ki [7]: 5.96 nM
Ki [8]: 6.87 nM
Ki [9]: 6.31 nM
Ki [10]: 5.25 nM
Ki [11]: 4470 nM
Ki [12]: 47 nM
Ki [13]: 23.1 nM
Ki [14]: 11 nM
Ki [15]: 8.27 nM
Ki [16]: 25.8 nM
Ki [17]: 5.52 nM
Ki [18]: 11.1 nM
Ki [19]: 6.04 nM
Ki [20]: 13.3 nM
Ki [21]: 41.9 nM
Ki [22]: 6.46 nM
Ki [23]: 2.92 nM
Ki [24]: 3.68 nM
B1: human CLIP peptide, unlabelled competitor (peptide)
chain: KPVSKMRMATPLLMQALPM

Source: publication doi:10.1101/2025.06.05.658000 (2025)
